From US20130123349A1 come the findings set out here.

Like-named read-outs stand apart in the source and are kept apart here.

One may read the kon as a measure of how fast the partners come together. The low end stands for slower complex formation, the high end for faster complex formation. For orientation: Kd means a measure of binding affinity in units of concentration. Low readings indicate a tighter complex, high ones a looser complex. As a reminder, the koff is a measure of how fast the partners let go of each other. High values mean fast dissociation, low ones slow dissociation. Broadly, the IC50 is the concentration needed to halve the response being measured.

Test [1] addresses T1, GFOGER peptide, GPC(GPP)5GFOGER(GPP)5GPC, cross-linked. Nature of the test: SPR, Aegyptin over immobilized cross-linked GFOGER peptide, two-state model; Ka1.
In test [2] the target is T2, […] peptide, GPC-(GPP)5-[…]-(GPP)5-GPC-NH2, cross-linked. As to the kind of experiment: SPR, Aegyptin over immobilized cross-linked RGQOGVMGFO peptide, two-state model.
Test [3] deals with T1, GFOGER peptide, …. As to the kind of experiment: SPR, Aegyptin over immobilized cross-linked GFOGER peptide, two-state model.
Test [4] concerns the target T2, […] peptide, ….
Test [5] concerns the target T2, […] peptide, …. This is another data set of the same source.
The target of test [6] is T1, GFOGER peptide, …. Nature of the test: SPR, Aegyptin over immobilized cross-linked GFOGER peptide, two-state model; Kd1. On the technique in general: In SPR one partner is held on a chip, and binding of the other changes the refractive index at the surface.

B1: recombinant Aegyptin, O01949 20-273 (protein)
chain: RPMPEDEEPVAEGGDDDASGESEGEEETTDDAGGDGGEEENEGEEHAGDKDAGGEDTGKEENTGHDDAGEEDAGEEDAGEEDAGEEDAGEEDAEKEEGEKEDAGDDAGSDDGEEDSTGGDEGEDNAEDSKGSEKNDPADTYRQVVALLDKDTKVDHIQSEYLRSALNNDLQSEVRVPVVEAIGRIGDYSKIQGCFKSMGKDVKKVISEEEKKFKSCMSKKKSEYQCSEDSFAAAKSKLSPITSKIKSCVSSKGRHHHHHH
Take B1: the kon in test [1] was 406000 M⁻¹ s⁻¹. In addition, in test [2], the dissociation constant Kd was determined as 139 nM, the Kd2 (two-state model) was found to be 0.00194 s⁻¹ and the second Ka of the two-state model worked out at 0.000981 M⁻¹ s⁻¹. In test [3], this molecule yielded a Kd of 2400 nM, a Kd2 (two-state model) of 0.00261 s⁻¹ and a second Ka of the two-state model of 0.000366 M⁻¹ s⁻¹. In test [4], this molecule gave a koff of 0.013 s⁻¹ and an association rate constant (kon) of 61900 M⁻¹ s⁻¹. In test [5], this molecule had an IC50 of 300 nM and a Kd of 139 nM. This molecule gave a koff in test [6] of 0.943 s⁻¹.
